First the molecules themselves.
B1: 11-123 (ssRNA)
RNA: GGGAGGACGAUGCGGGUGACUCAAAAUGGUGAUCCUCGUUUCGCCAGACGACUCGCCCGA
modifications: 2'-F pyrimidines
B2: 11-165 (ssRNA)
RNA: GGGAGGACGAUGCGGGUUGAUAGGAGUCAUCAUCGUCUUGUCCGCCAGACGACUCGCCCGA
modifications: 2'-F pyrimidines
B3: 11-224 (ssRNA)
RNA: GGGAGGACGAUGCGGACAGCGGCGACUAGCCUGUUCAUGCCUGCCCAGACGACUCGCCCGA
modifications: 2'-F pyrimidines
B4: 11-7 (ssRNA)
RNA: GGGAGGACGAUGCGGGUGGAGUCAAAUCGUCUUGUCCCUUGUCCUCAGACGACUCGCCCGA
modifications: 2'-F pyrimidines
B5: 11-166 (ssRNA)
RNA: GGGAGGACGAUGCGGGUUUGAGUUCUGACACGUCUUGUCCCAUGCCAGACGACUCGCCCGA
modifications: 2'-F pyrimidines
B6: 8-113 (ssRNA)
RNA: GGGAGGACGAUGCGGUGAAUUCCUCUGGCUGAAAAUGACUUGUGCCAGACGACUCGCCCGA
modifications: 2'-F pyrimidines
B7: 11-107 (ssRNA)
RNA: GGGAGGACGAUGCGGGUUCUGUGUGUCCACGUUCUUACCCCUGUGCAGACGACUCGCCCGA
modifications: 2'-F pyrimidines
B8: 8-174 (ssRNA)
RNA: GGGAGGACGAUGCGGUCGAGCUUCUGAGUUAAACUGGGGCCUCCUCAGACGACUCGCCCGA
modifications: 2'-F pyrimidines
B9: 11-203 (ssRNA)
RNA: GGGAGGACGAUGCGGGGUUUUUCUUUUCUUGUUCUCUUCUUUCCCCCAGACGACUCGCCCGA
modifications: 2'-F pyrimidines
B10: 10-28 (ssRNA)
RNA: GGGAGAUAAGAAUAAACGCUCAACCUGUUCUGAACGCAAAAUGGCGUGGUGGCUUCGACAGGAGGCUCACAACAGGC
modifications: 2'-F pyrimidines
B11: 11-6 (ssRNA)
RNA: GGGAGGACGAUGCGGGACGCGUUGAUUCAUCGUCUUAUCCUGCUGCAGACGACUCGCCCGA
modifications: 2'-F pyrimidines
B12: 11-151 (ssRNA)
RNA: GGGAGGACGAUGCGGUGAGUCAUAGUGUUGAUCGUCGUAUCCCGUCAGACGACUCGCCCGA
modifications: 2'-F pyrimidines
B13: 11-221 (ssRNA)
RNA: GGGAGGACGAUGCGGGCAGAGCGAAAAUCGUCUUGUCCCCGACGCCAGACGACUCGCCCGA
modifications: 2'-F pyrimidines
B14: 11-17 (ssRNA)
RNA: GGGAGGACGAUGCGGGUUAGAGCGUGACAGUCGUCUUAUCCCGGGUCACAGACGACUCGCCCGA
modifications: 2'-F pyrimidines
B15: 11-126 (ssRNA)
RNA: GGGAGGACGAUGCGGGUUUGGGUCUUGAUCUCGUCUUGUCCCGUGCAGACGACUCGCCCGA
modifications: 2'-F pyrimidines
B16: 8-160 (ssRNA)
RNA: GGGAGGACGAUGCGGGUCCCCGAAUUUAAAGUGCGUUUUCCUCCGGGCAGACGACUCGCCCGA
modifications: 2'-F pyrimidines
B17: 8-114 (ssRNA)
RNA: GGGAGGACGAUGCGGCGUGAGCCUAUUUAUGUCAUCAUGUCUGUGCAGACGACUCGCCCGA
modifications: 2'-F pyrimidines
B18: 11-215 (ssRNA)
RNA: GGGAGGACGAUGCGGGUAGUGAGUUUUCAUUGUCUUGUCCCCGUGCAGACGACUCGCCCGA
modifications: 2'-F pyrimidines

In this series the target is HGF (hepatocyte growth factor/scatter factor) (UniProt P14210;P14210 P14210:32-494,P14210:495-728). Briefly: filter; HBSMC, 37C. As to conditions: tags: R&D Systems. The protocol: In binding reactions, RNA concentrations were kept as low as possible—between 1 and 20 pM—to ensure equilibrium in conditions of protein excess. Oligonucleotides were incubated for 15 minutes at 37° C. with varying amounts of the protein in 43 µl of the binding buffer. Thirty-two microliters of each binding mixture placed on pre-wet 0.45 µm nitrocellulose filters under suction. Each well was immediately washed with 0.5 ml binding buffer. The amount of radioactivity retained on the filters was quantitated by imaging. The radioactivity that bound to filters in the absence of protein was used for background correction. The percentage of input oligonucleotide retained on each filter spot was plotted against the corresponding log protein concentration. The nonlinear least square method was used to obtain the dissociation constant (K_d; reference Jellinek, Lynott et al. 1993, Proc. Natl. Acad. Sci. USA. 90:11227–31).
HGF (hepatocyte growth factor/scatter factor), sequence (P14210 32-494, chain 1 of 2): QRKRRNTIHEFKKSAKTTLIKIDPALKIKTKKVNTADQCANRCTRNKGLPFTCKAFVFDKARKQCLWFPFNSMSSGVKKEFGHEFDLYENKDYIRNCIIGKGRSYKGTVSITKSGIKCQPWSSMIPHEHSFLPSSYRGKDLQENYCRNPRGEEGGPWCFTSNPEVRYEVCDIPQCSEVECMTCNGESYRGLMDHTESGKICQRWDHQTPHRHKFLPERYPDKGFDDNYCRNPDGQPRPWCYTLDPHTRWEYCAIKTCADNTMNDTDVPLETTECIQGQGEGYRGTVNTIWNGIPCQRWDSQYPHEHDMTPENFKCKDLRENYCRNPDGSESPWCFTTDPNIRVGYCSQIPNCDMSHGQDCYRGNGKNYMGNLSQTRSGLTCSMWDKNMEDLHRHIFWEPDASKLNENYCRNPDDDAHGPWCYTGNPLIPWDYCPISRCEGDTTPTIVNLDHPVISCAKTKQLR
HGF (hepatocyte growth factor/scatter factor), sequence (P14210 495-728, chain 2 of 2): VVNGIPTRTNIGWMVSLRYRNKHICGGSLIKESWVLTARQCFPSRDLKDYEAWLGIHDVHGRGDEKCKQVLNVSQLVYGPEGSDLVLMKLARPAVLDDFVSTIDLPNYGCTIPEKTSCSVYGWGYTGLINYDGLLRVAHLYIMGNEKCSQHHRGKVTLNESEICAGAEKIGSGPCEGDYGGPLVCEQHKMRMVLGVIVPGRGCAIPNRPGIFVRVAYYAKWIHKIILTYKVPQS
Molecule B1 yielded an equilibrium dissociation constant (Kd) of 0.09 nM.

For the molecule B2, the Kd was 0.073 nM.

B3: the Kd turned out to be 0.11 nM.

As for B4, binding was put at a Kd of 0.11 nM.

Molecule B5 returned a Kd of 0.079 nM.

Take B6: the Kd turned out to be 0.083 nM.

On to B7, for which the Kd came out at 0.14 nM.

The molecule B8 showed a Kd of 0.23 nM.

In turn, B9 had a dissociation constant Kd of 0.26 nM.

Turning to B10, binding was characterised by a dissociation constant (Kd) of 0.86 nM.

Molecule B11 returned a dissociation constant (Kd) of 0.24 nM.

Molecule B12 gave a Kd of 0.17 nM.

B13 had a Kd of 0.062 nM.

Turning to B14, the dissociation constant Kd worked out at 0.13 nM.

For B15, binding was put at a Kd of 0.17 nM.

Regarding B16, the affinity, expressed as Kd, was 0.15 nM.

Turning to B17, binding was characterised by a dissociation constant (Kd) of 0.071 nM.

For the molecule B18, the equilibrium dissociation constant (Kd) came out at 0.091 nM.

The values are drawn from patent publication US6344321, “Nucleic acid ligands which bind to hepatocyte growth factor/scatter factor (HGF/SF) or its receptor c-met” (Gilead Sciences, Inc.).
